How the values were obtained:
[1] = biological target: T1, recombinant mouse TIGIT protein (mouse, UniProt P86176 29-148, limits assumed); assay: ELISA, plate coated with 1 µg/ml recombinant mouse TIGIT protein (FIG. 1B)
T1 construct: also called mTIGIT recombinant protein; mTIGIT
T1 sequence (looked up): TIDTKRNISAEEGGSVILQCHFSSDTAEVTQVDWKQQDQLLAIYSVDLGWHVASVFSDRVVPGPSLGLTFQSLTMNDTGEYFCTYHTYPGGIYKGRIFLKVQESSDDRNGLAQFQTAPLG
Method: (§1) FIG. 1A and FIG. 1B are graphs showing identification and characterization of anti-mouse TIGIT monoclonal antibody 18G10. FIG. 1A is a line graph showing binding of anti-mouse TIGIT, clone 18G10, was measured by a cell-based ELISA using mouse TIGIT-overexpressing CHO cells (mTIGIT/CHO). 18G10 was serially diluted as indicated. After 30 min. of incubation, unbound 18G10 antibody was washed out, and the bound 18G10 antibodies were detected using an anti-mouse IgG reagent (closed circles). When the 18G10 was bound in the indicated serial dilutions on mTIGIT/CHO, 8 μg/ml recombinant mouse CD155:hIgG1-Fc (rmCD155) was added to the plate in order to verify whether 18G10 blocked the interaction of rmCD155 with mTIGIT/CHO. After 40 minutes of incubation, unbound recombinant CD155 was washed out, and the bound recombinant CD155 was detected by anti-human IgG reagent (open circles). […] Chimeric anti-TIGIT (18G10):mIgG2a, anti-TIGHT (18G10):mIgG1-[D265A], and isotype controls with mIgG2a or mIgG1-[D265A] isotype were loaded to ELISA plates coated with 1 μg/ml of (left panel) recombinant mouse TIGIT protein or (right panel) goat anti-mouse IgG-Fc antibody. Bound antibodies to each plate were detected. Note: mIgG1* indicates mIgG1-[D265A].

[2] = biological target: T2, mouse TIGIT on mouse TIGIT-overexpressing CHO cells (mouse, UniProt P86176 29-249); assay: cell-based ELISA on mTIGIT/CHO cells, detected by anti-mouse IgG
T2 construct: whole, on cells; also called mTIGIT/CHO; mTIGIT
T2 sequence (looked up): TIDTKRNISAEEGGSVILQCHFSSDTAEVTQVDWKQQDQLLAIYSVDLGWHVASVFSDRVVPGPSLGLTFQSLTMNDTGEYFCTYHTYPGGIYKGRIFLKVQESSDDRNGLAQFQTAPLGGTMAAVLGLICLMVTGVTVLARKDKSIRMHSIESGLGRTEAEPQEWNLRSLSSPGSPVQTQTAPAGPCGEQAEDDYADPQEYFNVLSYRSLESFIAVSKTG
Method: as §1

B1: chimeric anti-TIGIT (18G10):mIgG2a (antibody)
heavy: QVQLMESGPGLVQPSQTLSLTCTVSGFPLTSYTVHWVRQPPGKGLEWIGAIWSSGSTDYNSALKSRLNINRDSSKSQVFLKMNSLQTEDTAIYFCTKSGWAFFDYWGQGVMVTVSSAKTTAPSVYPLAPVCGDTTGSSVTLGCLVKGYFPEPVTLTWNSGSLSSGVHTFPAVLQSDLYTLSSSVTVTSSTWPSQSITCNVAHPASSTKVDKKIEPRGPTIKPCPPCKCPAPNLLGGPSVFIFPPKIKDVLMISLSPIVTCVVVDVSEDDPDVQISWFVNNVEVHTAQTQTHREDYNSTLRVVSALPIQHQDWMSGKEFKCKVNNKDLPAPIERTISKPKGSVRAPQVYVLPPPEEEMTKKQVTLTCMVTDFMPEDIYVEWTNNGKTELNYKNTEPVLDSDGSYFMYSKLRVEKKNWVERNSYSCSVVHEGLHNHHTTKSFSRTPGK
light: DIQMTQSPSLLSASVGDRVTLNCIASQNIYKSLAWYQLKLGEAPKLLIYNANSLQAGIPSRFSGSGSGTDFALTISGLQPEDVATYFCQQYSGGYTFGAGTKLELKRADAAPTVSIFPPSSEQLTSGGASVVCFLNNFYPKDINVKWKIDGSERQNGVLNSWTDQDSKDSTYSMSSTLTLTKDEYERHNSYTCEATHKTSTSPIVKSFNRNEC
notes: Rat 18G10 variable domains on an intact mouse IgG2a backbone; also called anti-TIGIT:mIgG2a
B1: binds [1].

B2: chimeric anti-TIGIT (18G10):mIgG1-[D265A] (antibody)
heavy: QVQLMESGPGLVQPSQTLSLTCTVSGFPLTSYTVHWVRQPPGKGLEWIGAIWSSGSTDYNSALKSRLNINRDSSKSQVFLKMNSLQTEDTAIYFCTKSGWAFFDYWGQGVMVTVSSAKTTPPSVYPLAPGSAAQTNSMVTLGCLVKGYFPEPVTVTWNSGSLSSGVHTFPAVLQSDLYTLSSSVTVPSSTWPSETVTCNVAHPASSTKVDKKIVPRDCGCKPCICTVPEVSSVFIFPPKPKDVLTITLTPKVTCVVVAISKDDPEVQFSWFVDDVEVHTAQTQPREEQFNSTFRSVSELPIMHQDWLNGKEFKCRVNSAAFPAPIEKTISKTKGRPKAPQVYTIPPPKEQMAKDKVSLTCMITDFFPEDITVEWQWNGQPAENYKNTQPIMDTDGSYFVYSKLNVQKSNWEAGNTFTCSVLHEGLHNHHTEKSLSHSPGK
light: DIQMTQSPSLLSASVGDRVTLNCIASQNIYKSLAWYQLKLGEAPKLLIYNANSLQAGIPSRFSGSGSGTDFALTISGLQPEDVATYFCQQYSGGYTFGAGTKLELKRADAAPTVSIFPPSSEQLTSGGASVVCFLNNFYPKDINVKWKIDGSERQNGVLNSWTDQDSKDSTYSMSSTLTLTKDEYERHNSYTCEATHKTSTSPIVKSFNRNEC
notes: Rat 18G10 variable domains on a mouse IgG1 backbone with D265A; also called anti-TIGIT:mIgG1*
B2: binds [1].

B3: anti-mouse TIGIT monoclonal antibody 18G10 (antibody, V domains shown)
VH: QVQLMESGPGLVQPSQTLSLTCTVSGFPLTSYTVHWVRQPPGKGLEWIGAIWSSGSTDYNSALKSRLNINRDSSKSQVFLKMNSLQTEDTAIYFCTKSGWAFFDYWGQGVMVTVSS
VL: DIQMTQSPSLLSASVGDRVTLNCIASQNIYKSLAWYQLKLGEAPKLLIYNANSLQAGIPSRFSGSGSGTDFALTISGLQPEDVATYFCQQYSGGYTFGAGTKLELK
notes: also called anti-mouse TIGIT, clone 18G10; rat anti-mouse TIGIT (mTIGIT) antibody clone 18G10
B3: binds [2].

Reference: patent publication US20220340660A1 (Merck Sharp & Dohme, published 2022)
